The values that follow come from FireProtDB (doi:10.1074/jbc.273.32.19982).

For the data set the following is noted: pH 7, Thermal, CD, Sodium phosphate 5 mM, NaCl 0.2 M, reversible: yes, whole UniProt chain shown.

B1: DNA-binding protein HU wild type, P0A3H0 (protein)
chain: MNKTELINAVAETSGLSKKDATKAVDAVFDSITEALRKGDKVQLIGFGNFEVRERAARKGRNPQTGEEMEIPASKVPAFKPGKALKDAVK
In the case of B1, under “Geobacillus stearothermophilus”, the Tm – broadly, the temperature at which the thermal transition is half complete – was found to be 63.9 °C and the “unfolding enthalpy (van 't Hoff)” value stood at 72.8 kcal/mol.

B2: DNA-binding protein HU 1 wild type, P08821 (protein)
chain: MNKTELINAVAEASELSKKDATKAVDSVFDTILDALKNGDKIQLIGFGNFEVRERSARKGRNPQTGEEIEIPASKVPAFKPGKALKDAVAGK
Regarding B2, the Tm (Bacillus subtilis (strain 168)) was found to be 48.6 °C.
